Measurements reported in patent US11441131B2, “Heparosan synthases and use thereof for saccharide synthesis” (The Regents of the University of California, priority 2019, dated 2022).
Where two headings read alike, the source gives them in different places.

B1: D222N (protein)
chain: MGSSHHHHHHSFEKIYTYNQALEAKLEKDKQTTSITDLYNEVAKSDLGLVKETNSANPLVSIIMTSHNTAQFIEASINSLLLQTYKNIEIIIVDDDSSDNTFEIASRIANTTSKVRVFRLNSNLGTYFAKNTGILKSKGDIIFFQDSDDVCHHERIERCVNILLANKETIAVRCAYSRLAPETQHIIKVNNMDYRLGFITLGMHRKVFQEIGFFNCTTKGSNDEFFHRIAKYYGKEKIKNLLLPLYYNTMRENSLFTDMVEWIDNHNIIQKMSDTRQHYATLFQAMHNETASHDFKNLFQFPRIYDALPVPQEMSKLSNPKIPVYINICSIPSRIAQLQRIIGILKNQCDHFHIYLDGYVEIPDFIKNLGNKATVVHCKDKDNSIRDNGKFILLEELIEKNQDGYYITCDDDIIYPSDYINTMIKKLNEYDDKAVIGLHGILFPSRMTKYFSADRLVYSFYKPLEKDKAVNVLGTGTVSFRVSLFNQFSLSDFTHSGMADIYFSLLCKKNNILQICISRPANWLTEDNRDSETLYHQYRDNDEQQTQLIMENGPWGYSSIYPLVKNHPKFTDLIPCLPFYFL
B2: T475A (protein)
chain: MGSSHHHHHHSFEKIYTYNQALEAKLEKDKQTTSITDLYNEVAKSDLGLVKETNSANPLVSIIMTSHNTAQFIEASINSLLLQTYKNIEIIIVDDDSSDNTFEIASRIANTTSKVRVFRLNSNLGTYFAKNTGILKSKGDIIFFQDSDDVCHHERIERCVNILLANKETIAVRCAYSRLAPETQHIIKVNNMDYRLGFITLGMHRKVFQEIGFFNCTTKGSDDEFFHRIAKYYGKEKIKNLLLPLYYNTMRENSLFTDMVEWIDNHNIIQKMSDTRQHYATLFQAMHNETASHDFKNLFQFPRIYDALPVPQEMSKLSNPKIPVYINICSIPSRIAQLQRIIGILKNQCDHFHIYLDGYVEIPDFIKNLGNKATVVHCKDKDNSIRDNGKFILLEELIEKNQDGYYITCDDDIIYPSDYINTMIKKLNEYDDKAVIGLHGILFPSRMTKYFSADRLVYSFYKPLEKDKAVNVLGAGTVSFRVSLFNQFSLSDFTHSGMADIYFSLLCKKNNILQICISRPANWLTEDNRDSETLYHQYRDNDEQQTQLIMENGPWGYSSIYPLVKNHPKFTDLIPCLPFYFL
B3: T477A (protein)
chain: MGSSHHHHHHSFEKIYTYNQALEAKLEKDKQTTSITDLYNEVAKSDLGLVKETNSANPLVSIIMTSHNTAQFIEASINSLLLQTYKNIEIIIVDDDSSDNTFEIASRIANTTSKVRVFRLNSNLGTYFAKNTGILKSKGDIIFFQDSDDVCHHERIERCVNILLANKETIAVRCAYSRLAPETQHIIKVNNMDYRLGFITLGMHRKVFQEIGFFNCTTKGSDDEFFHRIAKYYGKEKIKNLLLPLYYNTMRENSLFTDMVEWIDNHNIIQKMSDTRQHYATLFQAMHNETASHDFKNLFQFPRIYDALPVPQEMSKLSNPKIPVYINICSIPSRIAQLQRIIGILKNQCDHFHIYLDGYVEIPDFIKNLGNKATVVHCKDKDNSIRDNGKFILLEELIEKNQDGYYITCDDDIIYPSDYINTMIKKLNEYDDKAVIGLHGILFPSRMTKYFSADRLVYSFYKPLEKDKAVNVLGTGAVSFRVSLFNQFSLSDFTHSGMADIYFSLLCKKNNILQICISRPANWLTEDNRDSETLYHQYRDNDEQQTQLIMENGPWGYSSIYPLVKNHPKFTDLIPCLPFYFL
B4: D500N (protein)
chain: MGSSHHHHHHSFEKIYTYNQALEAKLEKDKQTTSITDLYNEVAKSDLGLVKETNSANPLVSIIMTSHNTAQFIEASINSLLLQTYKNIEIIIVDDDSSDNTFEIASRIANTTSKVRVFRLNSNLGTYFAKNTGILKSKGDIIFFQDSDDVCHHERIERCVNILLANKETIAVRCAYSRLAPETQHIIKVNNMDYRLGFITLGMHRKVFQEIGFFNCTTKGSDDEFFHRIAKYYGKEKIKNLLLPLYYNTMRENSLFTDMVEWIDNHNIIQKMSDTRQHYATLFQAMHNETASHDFKNLFQFPRIYDALPVPQEMSKLSNPKIPVYINICSIPSRIAQLQRIIGILKNQCDHFHIYLDGYVEIPDFIKNLGNKATVVHCKDKDNSIRDNGKFILLEELIEKNQDGYYITCDDDIIYPSDYINTMIKKLNEYDDKAVIGLHGILFPSRMTKYFSADRLVYSFYKPLEKDKAVNVLGTGTVSFRVSLFNQFSLSDFTHSGMANIYFSLLCKKNNILQICISRPANWLTEDNRDSETLYHQYRDNDEQQTQLIMENGPWGYSSIYPLVKNHPKFTDLIPCLPFYFL

Legend:
[1] = Protein expression and purification; set-up: species or system E. coli BL21 (DE3); conditions: per L culture
Method: Protein expression and purification. The plasmid-bearing E. coli BL21(DE3) cells were cultured in 1 L of LB-rich media (10 g/L tryptone, 5 g/L yeast extract and 10 g/L NaCl) supplemented with ampicillin (100 μg/mL). Expression of the target protein was achieved by inducing the E. coli culture with 0.1 mM of isopropyl-1-thio-β-D-galactopyranoside (IPTG) when OD600 nm reached 0.8-1.0, followed by incubating at 20° C. for 20 h with shaking at 250 rpm in a C25KC incubator shaker (New Brunswick Scientific, Edison, N.J.). Histidine-tagged target proteins were purified from cell lysate. To obtain the cell lysate, cell pellet harvested by centrifugation at 2,795 g for 50 min was resuspended (25 mL/L cell culture) in lysis buffer (Tris-HCl, 100 mM, pH 8.0 with 0.1% Triton X-100). Sonication protocol was 2 s (sonication)/3 s (rest) for a total of 6 min on ice. Lysed cells were centrifuged at 5,000 g for 50 min and the supernatant (lysate) was collected. Purification of histidine-tagged proteins from the lysate was achieved using a Ni′-resin column. The column was pre-equilibrated with 10 column volumes of binding buffer (5 mM imidazole, 0.5 M NaCl, 50 mM Tris-HCl, pH 7.5). The lysate was then loaded, and the column was washed with 10 column volumes of binding buffer and 10 column volumes of washing buffer (16 mM imidazole, 0.5 M NaCl, 50 mM Tris-HCl, pH 7.5). The target protein was eluted with Tris-HCl buffer (50 mM, pH 7.5) containing imidazole (200 mM) and NaCl (0.5 M). The fractions containing the purified enzymes were collected, and stored at 4° C.

[2] = Reverse glycosylation assay mimicking synthetic conditions; assay type: biochemical; conditions: 30 mM UDP, conditions mimicking synthetic reactions
Method: Reactions were stopped by heating reaction mixtures at 70° C. for 10 min, followed by incubation on ice for 30 min and centrifugation at 11,337 g for 15 min. Supernatants were analyzed similarly to that described above for time-course reverse glycosylation assays.

[3] = α1-4-GlcNAcT activity comparison of His6-Δ80PmHS2 and its D222N and D500N mutants; assay type: biochemical
Method: Reactions were stopped by heating reaction mixture at 70° C. for 10 min, followed by incubation on ice for 30 min and centrifugation at 11,337 g for 15 min. Supernatants were analyzed similarly to that described above for […].

[4] = β1-4-GlcAT activity comparison of His6-Δ80PmHS2 and its D222N and D500N mutants; assay type: biochemical
Method: Reactions were stopped by heating reaction mixtures at 70° C. for 10 min, followed by incubation on ice for 30 min and centrifugation at 11,337 g for 15 min. Supernatants were analyzed similarly to that described above for the coupled-enzyme reverse glycosylation assay.

[5] = α1-4GlcNAc-transferase activity of designed mutants; assay type: biochemical

Row | Molecule | expression level [1] | reverse glycosylation oligosaccharide products [2] | α1-4-GlcNAcT activity relative to His6-Δ80PmHS2 [3] | β1-4-GlcAT activity relative to His6-Δ80PmHS2 [4] | β1-4-GlcAT activity relative to His6-Δ80PmHS2 ([4]; listed as D291N) | α1-4GlcNAc-transferase activity [5] | decrease of α1-4-GlcNAcT activity relative to His6-Δ80PmHS2 [3]
1 | B1 | 50 to 60 mg/L | no reverse glycosylation oligosaccharide products were observed | retained | lost | completely removed |  | 
2 | B2 |  |  |  |  |  | retained | 
3 | B3 |  |  |  |  |  | retained | 
4 | B4 | 60 to 70 mg/L | no reverse glycosylation oligosaccharide products were observed |  | retained |  |  | 548 fold
